Read-outs that look alike come from different tables or passages of the source.
Key:
Assay in all cases: SPR
[1] = molecular target: derCD23 (monomeric CD23 protein) (human) (UniProt P06734)
[2] = molecular target: derCD23 (monomeric CD23 protein) (human) (UniProt P06734); remark: listed apart in the source
[3] = molecular target: Recombinant human IgE-Fc (composed of domains Cϵ2-Cϵ4) (human)
[4] = molecular target: Recombinant human IgE-Fc (composed of domains Cϵ2-Cϵ4) (human); remark: listed apart in the source

UniProt P06734, sequence (P06734 156-298): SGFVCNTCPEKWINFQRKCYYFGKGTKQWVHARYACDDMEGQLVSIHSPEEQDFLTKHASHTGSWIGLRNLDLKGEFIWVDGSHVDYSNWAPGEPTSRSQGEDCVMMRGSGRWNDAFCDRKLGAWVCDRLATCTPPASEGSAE

Substance	Kd [1] [µM]	Kd [3] [µM]	other results
IgE-Fc D347A (domain or fragment)	2.5	–	–
IgE-Fc D409A (domain or fragment)	26.3	–	–
IgE-Fc E412A (domain or fragment)	24.2	–	–
IgE-Fc K352A (domain or fragment)	3.8	–	–
IgE-Fc K380A (domain or fragment)	13.3	–	–
IgE-Fc K435A (domain or fragment)	5	–	–
IgE-Fc P439A (domain or fragment)	2.5	–	–
IgE-Fc Q535A (domain or fragment)	2.5	–	–
IgE-Fc Q538A (domain or fragment)	2.4	–	–
IgE-Fc R351A (domain or fragment)	2.6	–	–
IgE-Fc R376A (domain or fragment)	19.7	–	–
Recombinant human IgE-Fc (composed of domains Cϵ2-Cϵ4) (domain or fragment)	2.3	–	Kd [2]: 2400 nM
derCD23 (monomeric CD23 protein) (from UniProt P06734 156-298) (domain or fragment)	–	2.3	Kd [4]: 2300 nM
derCD23 D192A (from UniProt P06734 1-321) (domain or fragment)	–	4.3	–
derCD23 D227A (from UniProt P06734 1-321) (domain or fragment)	–	30.9	–
derCD23 D236A (from UniProt P06734 1-321) (domain or fragment)	–	5.8	–
derCD23 E257A (from UniProt P06734 1-321) (domain or fragment)	–	26.7	–
derCD23 E265A (domain or fragment)	–	2.5	–
derCD23 K276A (from UniProt P06734 1-321) (domain or fragment)	–	10.9	–
derCD23 L226A (from UniProt P06734 1-321) (domain or fragment)	–	6.6	–
derCD23 R188A (from UniProt P06734 1-321) (domain or fragment)	–	25	–
derCD23 R224A (from UniProt P06734 1-321) (domain or fragment)	–	26.2	–
derCD23 Y189A (from UniProt P06734 1-321) (domain or fragment)	–	15.6	–
